In the first experiment the target is rac1_human RAC1 (UniProt P63000).
With “Leucine-rich repeat serine/threonine-protein kinase 2 (Homo sapiens), Q5S007 G2019S”, the “effect of a mutation on the interaction” value is on record as “decreasing interaction”.

As to “Leucine-rich repeat serine/threonine-protein kinase 2 (Homo sapiens), Q5S007 I2020T”, the “effect of a mutation on the interaction” value is listed as “increasing interaction”.

With “Leucine-rich repeat serine/threonine-protein kinase 2 (Homo sapiens), Q5S007 R1441C”, the “effect of a mutation on the interaction” value is recorded as “disrupting interaction”.

As to “Leucine-rich repeat serine/threonine-protein kinase 2 (Homo sapiens), Q5S007 Y1699C”, the “effect of a mutation on the interaction” value was “increasing interaction”.

As for “Leucine-rich repeat serine/threonine-protein kinase 2 (Homo sapiens), Q5S007 K1906M”, the “effect of a mutation on the interaction” value is on record as “decreasing interaction”.

The target in a further experiment is lrrk2_human LRRK2 (UniProt Q5S007).
On to “Ras-related C3 botulinum toxin substrate 1 (Homo sapiens) (from UniProt P63000) T17N”, for which the “effect of a mutation on the interaction” value is reported as “decreasing interaction”.
